From PMC12618784, “The ARVC-5-associated protein TMEM43 controls mitochondrial energy metabolism by stabilising ER-mitochondrial contact sites” (Cellular and Molecular Life Sciences: CMLS, 2025)

Target: T1, Dmel\Tmem43wt::TurboID (Drosophila, UniProt Q9VSB9 1-376)
T1 construct: Dmel\Tmem43 (CG8111), the Drosophila homologue of human TMEM43, wild type; Generated in this study; cloning details are available upon request; also called UAS-CG8111^WT-TurboID; source: transgenic Drosophila third-instar larvae, expressed in muscle with mef2-Gal4, in vivo and in lysate
T1 sequence (looked up): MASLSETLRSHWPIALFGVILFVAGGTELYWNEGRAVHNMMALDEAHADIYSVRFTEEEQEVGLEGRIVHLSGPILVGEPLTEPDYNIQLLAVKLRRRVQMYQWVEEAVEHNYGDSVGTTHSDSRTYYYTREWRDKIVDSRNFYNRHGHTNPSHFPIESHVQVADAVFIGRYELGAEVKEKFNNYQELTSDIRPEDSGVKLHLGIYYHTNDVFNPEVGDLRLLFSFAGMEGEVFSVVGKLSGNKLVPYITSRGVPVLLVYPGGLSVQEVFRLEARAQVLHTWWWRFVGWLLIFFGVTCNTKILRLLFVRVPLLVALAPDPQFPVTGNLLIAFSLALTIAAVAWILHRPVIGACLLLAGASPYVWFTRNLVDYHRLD
Assay: proximity labelling; TurboID fusions expressed in muscle of third-instar larvae (mef2-Gal4); biotinylated proteins purified on streptavidin microbeads and identified by mass spectrometry
Conditions: partners not purified

B1: Porin (natural protein, UniProt Q94920 1-282, looked up)
chain: MAPPSYSDLGKQARDIFSKGYNFGLWKLDLKTKTSSGIEFNTAGHSNQESGKVFGSLETKYKVKDYGLTLTEKWNTDNTLFTEVAVQDQLLEGLKLSLEGNFAPQSGNKNGKFKVAYGHENVKADSDVNIDLKGPLINASAVLGYQGWLAGYQTAFDTQQSKLTTNNFALGYTTKDFVLHTAVNDGQEFSGSIFQRTSDKLDVGVQLSWASGTSNTKFAIGAKYQLDDDASVRAKVNNASQVGLGYQQKLRDGVTLTLSTLVDGKNFNAGGHKIGVGLELEA
notes: Porin, the fly homologue of the vertebrate voltage-dependent anion channels (VDACs), outer mitochondrial membrane; also called Porin/VDAC; fly homologue of the vertebrate voltage-dependent anion channels; source: endogenous, Drosophila third-instar larval extract
fold stronger interaction than the p.S333L mutant (relative amounts of biotinylated protein): ~8 fold
